Article PMC6435160, “Initiation-specific alleles of the Cdc45 helicase-activating protein” (PLoS ONE, 2019)

B1: Cdc45-124 (DAH->AAA) (natural protein, S. cerevisiae, UniProt Q08032 1-650, looked up)
chain: MYYGISQFSEAYNKILRNSSSHSSCQLVIFVSCLNIDALCATKMLSLLFKKQLVQSQIVPIFGYSELRRHYSQLDDNINSLLLVGFGGVIDLEAFLEIDPQEYVIDTDEKSGEQSFRRDIYVLAAARPWNLDNIFGSQIIQCFDDGTVDDTLGEQKEAYYKLLELDEESGDDELSGDENDNNGGDDEATDADEVTDEDEEDEDETISNKRGNSSIGPNDLSKRKQRKKQIHEYEGVLEEYYSQGTTVVNSISAQIYSLLSAIGETNLSNLWLNILGTTSLDIAYAQVYNRLYPLLQDEVKRLTPSSRNSVKTPDTLTLNIQPDYYLFLLRHSSLYDSFYYSNYVNAKLSLWNENGKKRLHKMFARMGIPLSTAQETWLYMDHSIKRELGIIFDKNLDRYGLQDIIRDGFVRTLGYRGSISASEFVEALTALLEVGNSTDKDSVKINNDNNDDTDGEEEEDNSAQKLTNLRKRWVSNFWLSWDALDDRKVELLNRGIQLAQDLQRAIFNTGVAILEKKLIKHLRIYRLCVLQDGPDLDLYRNPLTLLRLGNWLIECCAESEDKQLLPMVLASIDENTDTYLVAGLTPRYPRGLDTIHTKKPILNNFSMAFQQITAETDAKVRIDNFESSIIEIRREDLSPFLEKLTLSGLL
notes: Cdc45, Saccharomyces cerevisiae, clustered alanine mutant; mutants are numbered by the position of the first mutated amino acid; also called Cdc45-ts
B2: Cdc45-238 (EEY->AAA) (natural protein, S. cerevisiae, UniProt Q08032 1-650, looked up)
chain: MYYGISQFSEAYNKILRNSSSHSSCQLVIFVSCLNIDALCATKMLSLLFKKQLVQSQIVPIFGYSELRRHYSQLDDNINSLLLVGFGGVIDLEAFLEIDPQEYVIDTDEKSGEQSFRRDIYVLDAHRPWNLDNIFGSQIIQCFDDGTVDDTLGEQKEAYYKLLELDEESGDDELSGDENDNNGGDDEATDADEVTDEDEEDEDETISNKRGNSSIGPNDLSKRKQRKKQIHEYEGVLAAAYSQGTTVVNSISAQIYSLLSAIGETNLSNLWLNILGTTSLDIAYAQVYNRLYPLLQDEVKRLTPSSRNSVKTPDTLTLNIQPDYYLFLLRHSSLYDSFYYSNYVNAKLSLWNENGKKRLHKMFARMGIPLSTAQETWLYMDHSIKRELGIIFDKNLDRYGLQDIIRDGFVRTLGYRGSISASEFVEALTALLEVGNSTDKDSVKINNDNNDDTDGEEEEDNSAQKLTNLRKRWVSNFWLSWDALDDRKVELLNRGIQLAQDLQRAIFNTGVAILEKKLIKHLRIYRLCVLQDGPDLDLYRNPLTLLRLGNWLIECCAESEDKQLLPMVLASIDENTDTYLVAGLTPRYPRGLDTIHTKKPILNNFSMAFQQITAETDAKVRIDNFESSIIEIRREDLSPFLEKLTLSGLL
notes: as for B1
B3: Cdc45-485 (DDRK->AAAA) (natural protein, S. cerevisiae, UniProt Q08032 1-650, looked up)
chain: MYYGISQFSEAYNKILRNSSSHSSCQLVIFVSCLNIDALCATKMLSLLFKKQLVQSQIVPIFGYSELRRHYSQLDDNINSLLLVGFGGVIDLEAFLEIDPQEYVIDTDEKSGEQSFRRDIYVLDAHRPWNLDNIFGSQIIQCFDDGTVDDTLGEQKEAYYKLLELDEESGDDELSGDENDNNGGDDEATDADEVTDEDEEDEDETISNKRGNSSIGPNDLSKRKQRKKQIHEYEGVLEEYYSQGTTVVNSISAQIYSLLSAIGETNLSNLWLNILGTTSLDIAYAQVYNRLYPLLQDEVKRLTPSSRNSVKTPDTLTLNIQPDYYLFLLRHSSLYDSFYYSNYVNAKLSLWNENGKKRLHKMFARMGIPLSTAQETWLYMDHSIKRELGIIFDKNLDRYGLQDIIRDGFVRTLGYRGSISASEFVEALTALLEVGNSTDKDSVKINNDNNDDTDGEEEEDNSAQKLTNLRKRWVSNFWLSWDALAAAAVELLNRGIQLAQDLQRAIFNTGVAILEKKLIKHLRIYRLCVLQDGPDLDLYRNPLTLLRLGNWLIECCAESEDKQLLPMVLASIDENTDTYLVAGLTPRYPRGLDTIHTKKPILNNFSMAFQQITAETDAKVRIDNFESSIIEIRREDLSPFLEKLTLSGLL
notes: as for B1
B4: GINS complex (Sld5, Psf1, Psf2, Psf3) (complex, S. cerevisiae)
chain 1: MDINIDDILAELDKETTAVDSTKITQGSSSTTHRDANTIVGSSLDLNDKTQIYVSPQQDFSDLMKSWKNERCSPELLPYPHQLMKRLLNRISMQSQLIENISMGFLDMQNASNANPPMPNESKLPLLCMETELERLKFVIRSYIRCRLSKIDKFSLYLRQLNEDENSLISLTDLLSKDEIKYHDTHSLIWLKLVNDSILKYMPEELQAINDTEGSVNMIDEPDWNKFVFIHVNGPPDGKWNEDPLLQENEFGKPCYTVTIPDLKEEVELTIGSIYVMRYEVIRDLLRDDKVALI
chain 2: MYGDLGNKLVLEAKRTKQLYARSNQDVNLPMYHEDIIRNILKEVSNLRKNTEYLKEQQQLGMLDDKVAKCQYFVTLLCMERNKRCLLAYQRLRTDILDSMAWNNNGLDLMSSITFSQQDTNNLSHQEQEYLKEYCDLITDLKSGDLVDIDLSGSLVPPSDVFIDVRVLKDAGEIQTEYGVFNLIKDSQFFVRQSDVERLIQQGYLQKI
chain 3: MSLPAHLQQTFSPEEIQFIVENEPIKIFPRITTRQKIRGDDRGTGNHTRWQLITTDDKALNNMVAMRSTEVVLWIALLLKQQSKCSIVAPQWLTTKELDRKIQYEKTHPDRFSELPWNWLVLARILFNKAKDDFHDPIHELRGKIQDLREIRQIKVLKGLKYLNESHLQLDNLSLLEINELRPFITEIMDKLREIHTASLTAGTENDEEEFNI
chain 4: MGYYDIDDVLADGTEFPCKFQYDIPGLGYLENNPGRPITKNTKLSLPLWLARILAIVGGDEALVDEEPVPFVELLPPDMFSTKVMNAIKTDPVALDLHSINSHFFSLAIKWIMLFSEKELANVVSELLLQRAQELNHHASSLSIDLNADSTGKNSANTNIATSTFLLKLEEMEKEIYKKSHESYKDTKRWMFKK
notes: Sld5 subunit of GINS, S. cerevisiae; Psf1 subunit of GINS, S. cerevisiae; Psf2 subunit of GINS, S. cerevisiae; expressed as Psf2-3C-6xHis-Flag, tag removed with HRV 3C protease; Psf3 subunit of GINS, S. cerevisiae; not shown: 6xHis, C-terminal, cleaved; Flag, C-terminal, cleaved; copies: + + +

Key:
[1] = target: T1, Mcm2-7 replicative DNA helicase, loaded on origin DNA and phosphorylated by DDK (S. cerevisiae, UniProt P29469 1-868; P24279 1-971; P30665 1-933; P29496 1-775; P53091 1-1017; P38132 …); experiment: pull-down; CMG formation assay: Mcm2-7 loaded on bead-attached origin DNA (pUC19-ARS1) and treated with DDK; S-CDK, Sld2, Dpb11, Pol ε, GINS, Mcm10, Sld3/7 and 50 nM Cdc45 added, no Pol α-primase; 30 min at 25°C; beads washed with buffer H + 0.3 M KCl, 0.02% NP-40 (salt-stable complexes); proteins released with DNase and detected by immunoblot; amounts relative to wild type; conditions: both partners purified
T1 construct: Mcm2 subunit of Mcm2-7, S. cerevisiae; Mcm3 subunit of Mcm2-7, S. cerevisiae; Mcm4 subunit of Mcm2-7, S. cerevisiae; Mcm5 subunit of Mcm2-7, S. cerevisiae; Mcm6 subunit of Mcm2-7, S. cerevisiae; Mcm7 subunit of Mcm2-7, S. cerevisiae; In the assays the complex was loaded on origin DNA and treated with DDK; also called Mcm2-7 complex; loaded Mcm2-7; source: Mcm2-7/Cdt1 purified as previously …

[2] = target: T1, Mcm2-7 replicative DNA helicase, loaded …; experiment: pull-down; reconstituted DNA replication assay: Mcm2-7 loaded on bead-attached origin DNA (pARS1-Nco) and treated with DDK; S-CDK, Sld2, Dpb11, Pol α-primase, Pol ε, RPA, GINS, Mcm10, Sld3/7 and 130 nM Cdc45 added; 1 h at 25°C; beads washed with buffer H + 0.3 M K-Glut, 0.02% NP-40; proteins released with DNase and detected by immunoblot; amounts relative to wild type; conditions: both partners purified

| Binder | stable CMG complexes, percent of wild-type Cdc45 [1] | percent of wild-type Cdc45 association [2] | binding result [2] |
| --- | --- | --- | --- |
| B1 | 67 % of wild-type Cdc45 | – | – |
| B2 | 55 % of wild-type Cdc45 | 20 % of wild-type Cdc45 association | – |
| B3 | 43 % of wild-type Cdc45 | 27 % of wild-type Cdc45 association | – |
| B4 | – | – | binds |
